{"source": "paper PMC6716341", "about": "(ACS Central Science, 2019)", "key": {"NSC-hTERT": {"test_system": "NSC-hTERT", "conditions": "incubated with NSC-hTERT cells; cited from earlier work"}, "SK-N-SH": {"test_system": "SK-N-SH", "conditions": "incubated with SK-N-SH cells; cited from earlier work"}, "SH-SY5Y": {"test_system": "SH-SY5Y", "conditions": "incubated with SH-SY5Y cells; cited from earlier work"}, "[1]": {"experiment": "In vitro aging: isomerization of Asp1 and Asp7", "type": "physicochemical", "conditions": "from the rates in Figure 4"}}, "data": [{"substance": "isomerized Aβ1–42: isomerized Aβ1–42 studied by Makarov and co-workers", "values": [{"measurement": "toxicity relative to canonical form", "setting": "NSC-hTERT", "value": "more toxic than the canonical form"}, {"measurement": "toxicity relative to canonical form", "setting": "SK-N-SH", "value": "more toxic than the canonical form"}, {"measurement": "toxicity relative to canonical form", "setting": "SH-SY5Y", "value": "more toxic than the canonical form"}]}, {"substance": "Aβ: amyloid beta in general; isomerization estimated from the measured rates", "values": [{"measurement": "degree of isomerization within a 30 h time frame", "setting": "[1]", "value": "~0.2", "unit": "%"}]}]}
